This is an account of results in US20240368668A1, “SUBSTRATES AND BIOMARKERS OF ADAMTS7” (The Broad Institute, Inc., priority 2021, published 2024).

Square brackets hold non-standard residues; d marks the D form. Ends that are not written are not given here.

The target of the assay is T1, mouse ADAMTS7 (Mus musculus, UniProt Q68SA9, E373Q).
T1 construct: Full-length mouse Adamts7 1-1857 (Uniprot Q68SA9, WT or E373Q catalytic mutant); expressed in transfected cells; host or cells: Human Coronary Artery Smooth Muscle Cells (HCA-SMC, Lonza), adenovirus 50 MOI
T1 sequence (Q68SA9 221-1657 E373Q): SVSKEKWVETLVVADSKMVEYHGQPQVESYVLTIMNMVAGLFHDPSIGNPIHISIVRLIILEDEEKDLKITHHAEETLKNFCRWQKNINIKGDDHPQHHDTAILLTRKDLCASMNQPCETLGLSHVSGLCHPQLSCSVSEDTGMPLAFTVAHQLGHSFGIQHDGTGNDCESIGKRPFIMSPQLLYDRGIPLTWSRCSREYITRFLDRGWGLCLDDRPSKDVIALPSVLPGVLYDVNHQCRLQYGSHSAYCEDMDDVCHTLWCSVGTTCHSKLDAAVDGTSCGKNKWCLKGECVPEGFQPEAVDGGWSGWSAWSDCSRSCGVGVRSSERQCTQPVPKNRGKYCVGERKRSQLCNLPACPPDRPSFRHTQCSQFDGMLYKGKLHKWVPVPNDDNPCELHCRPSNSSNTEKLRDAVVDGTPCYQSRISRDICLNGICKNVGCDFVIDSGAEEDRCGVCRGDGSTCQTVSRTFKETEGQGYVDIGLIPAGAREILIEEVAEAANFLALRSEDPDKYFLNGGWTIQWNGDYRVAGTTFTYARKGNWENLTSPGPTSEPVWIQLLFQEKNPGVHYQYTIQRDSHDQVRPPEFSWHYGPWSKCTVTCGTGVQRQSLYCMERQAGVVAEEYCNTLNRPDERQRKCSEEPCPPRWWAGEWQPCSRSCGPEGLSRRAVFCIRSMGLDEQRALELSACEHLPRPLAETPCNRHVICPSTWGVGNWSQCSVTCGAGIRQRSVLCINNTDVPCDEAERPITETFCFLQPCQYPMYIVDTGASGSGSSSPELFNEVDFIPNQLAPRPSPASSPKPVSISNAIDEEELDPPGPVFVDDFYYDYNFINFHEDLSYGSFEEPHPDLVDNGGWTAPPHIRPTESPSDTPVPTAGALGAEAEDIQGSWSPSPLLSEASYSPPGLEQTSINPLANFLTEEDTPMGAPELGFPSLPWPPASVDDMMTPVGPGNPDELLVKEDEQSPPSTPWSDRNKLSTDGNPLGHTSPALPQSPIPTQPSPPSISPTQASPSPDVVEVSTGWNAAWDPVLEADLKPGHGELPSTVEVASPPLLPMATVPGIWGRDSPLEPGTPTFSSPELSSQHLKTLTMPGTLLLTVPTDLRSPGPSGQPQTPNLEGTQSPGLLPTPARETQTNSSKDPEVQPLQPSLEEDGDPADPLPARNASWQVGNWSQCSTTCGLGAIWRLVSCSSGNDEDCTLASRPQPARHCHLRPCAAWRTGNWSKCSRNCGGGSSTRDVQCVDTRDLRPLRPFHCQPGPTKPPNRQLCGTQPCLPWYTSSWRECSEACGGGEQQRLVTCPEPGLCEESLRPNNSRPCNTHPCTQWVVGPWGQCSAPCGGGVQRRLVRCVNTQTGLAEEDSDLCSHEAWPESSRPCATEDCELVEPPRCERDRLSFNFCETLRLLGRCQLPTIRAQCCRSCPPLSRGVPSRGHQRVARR
The assay is described as follows: TMT10 TAILS N-terminomics, SMC1 experiment (Ad-mADAMTS7 WT vs EQ vs Luc, technical replicates, trypsin digest). The following applies: TAILS neo-N-terminal peptide abundance; log fold change, Ad-mADAMTS7 EQ over Luc. The format is cell-based. The gist of the method: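 Full-length mouse ADAMTS7 (WT or E373Q mutant, C-terminal 3xFLAG) or luciferase was transduced via adenovirus, 50 MOI, into HCA-SMC (SMC1, SMC2) or HUVEC. SMC1: pooled media, technical triplicates 400 ug; SMC2: process triplicates 300 ug; HUVEC: process triplicates 200 ug, bFGF2 10 ng/ml.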
In turn, “ACTB_21 (FAGDDAPR; listed as Homo sapiens)” displayed a logFC.mEQ.over.Luc of −0.08.

As for “ACTB_105 (LTEAPLNPKANR; listed as Homo sapiens)”, the logFC.mEQ.over.Luc was −0.12.

“ADAM9_69 (VIQAEGKEHIIHLER; listed as Homo sapiens)” yielded a logFC.mEQ.over.Luc of −0.10.

With “AEBP1_37 (FLEGFLSELEPEPR; listed as Homo sapiens)”, the logFC.mEQ.over.Luc is recorded as −0.18.

For the substance “APLP2_579 (ISETPVDVR; listed as Homo sapiens)”, the logFC.mEQ.over.Luc is reported as 0.27.

In turn, “CCDC80_66 (LEEPNLQPLQR; listed as Homo sapiens)” yielded a logFC.mEQ.over.Luc of 0.14.

As to “ECM1_134 (FGDQSHPEPESWNAAQHCQQDR; listed as Homo sapiens)”, the logFC.mEQ.over.Luc worked out at 0.28.

For “EFEMP1_124 (AVAGPEMQTGR; listed as Homo sapiens)”, the logFC.mEQ.over.Luc is recorded as −0.59.

In turn, “EFEMP1_125 (VAGPEMQTGR; listed as Homo sapiens)” came in with a logFC.mEQ.over.Luc of −0.33.

As for “EFHD2_67 (QGIGEPQSPSR; listed as Homo sapiens)”, the logFC.mEQ.over.Luc is given as −0.09.

In turn, “EHBP1L1_298 (TAPTPAPR; listed as Homo sapiens)” came in with a logFC.mEQ.over.Luc of −0.22.

Substance “FBLN2_259 (ALGPPAPVQAKAR; listed as Homo sapiens)” yielded a logFC.mEQ.over.Luc of −0.01.

For “FBLN2_260 (LGPPAPVQAKAR; listed as Homo sapiens)”, the logFC.mEQ.over.Luc is recorded as −0.74.

Turning to “FBN1_29 (LEAGNVKETR; listed as Homo sapiens)”, the logFC.mEQ.over.Luc is given as 0.21.

In turn, “FBN1_53 (LKGPNVCGSR; listed as Homo sapiens)” had a logFC.mEQ.over.Luc of −0.04.

“FLNA_612 (SVEGPSQAKIECDDKGDGSCDVR; listed as Homo sapiens)” registered a logFC.mEQ.over.Luc of 0.19.

In the case of “FLNA_695 (FTVDAKHGGKAPLR; listed as Homo sapiens)”, the logFC.mEQ.over.Luc was −0.25.

Take “FLNA_1285 (LTQTGGPHVKAR; listed as Homo sapiens)”: the logFC.mEQ.over.Luc is on record as −0.11.

In turn, “FN1_36 (MVQPQSPVAVSQSKPGCYDNGKHYQINQQWER; listed as Homo sapiens)” displayed a logFC.mEQ.over.Luc of 0.39.

In turn, “FN1_40 (QSPVAVSQSKPGCYDNGKHYQINQQWER; listed as Homo sapiens)” registered a logFC.mEQ.over.Luc of −0.40.

“FN1_45 (VSQSKPGCYDNGKHYQINQQWER; listed as Homo sapiens)” showed a logFC.mEQ.over.Luc of 0.49.

As to “FN1_47 ([code q]SKPGCYD[code n]GKHYQINQQWER; not fully specified; listed as Homo sapiens)”, the logFC.mEQ.over.Luc was determined as 0.19.

In turn, “FN1_281 (SGSGPFTDVR; listed as Homo sapiens)” yielded a logFC.mEQ.over.Luc of 0.56.

“FN1_282 (GSGPFTDVR; listed as Homo sapiens)” yielded a logFC.mEQ.over.Luc of −0.15.

Substance “FN1_886 (NQESTPVVIQQETTGTPR; listed as Homo sapiens)” gave a logFC.mEQ.over.Luc of 0.49.

On to “FN1_1143 (LTPGVEYVYTIQVLR; listed as Homo sapiens)”, for which the logFC.mEQ.over.Luc is 0.00.

For “FN1_1656 (SSSPVTGYR; listed as Homo sapiens)”, the logFC.mEQ.over.Luc is reported as −0.08.

In turn, “FN1_1731 (FTDVDVDSIKIAWESPQGQVSR; listed as Homo sapiens)” gave a logFC.mEQ.over.Luc of −0.11.

On to “FN1_2143 (FEEHGFR; listed as Homo sapiens)”, for which the logFC.mEQ.over.Luc is −0.13.

Consider “FN1_2217 (FQDTSEYIISCHPVGTDEEPLQFR; listed as Homo sapiens)”, for which the logFC.mEQ.over.Luc amounted to 0.14.

Consider “GALNT2_31 (LAGGAGGGAGR; listed as Homo sapiens)”, for which the logFC.mEQ.over.Luc is −0.43.

“GSN_35 (SQAGAPQGR; listed as Homo sapiens)” showed a logFC.mEQ.over.Luc of 0.05.

On to “GSN_413 (HIANVER; listed as Homo sapiens)”, for which the logFC.mEQ.over.Luc is −0.20.
